The record followed here is publication PMC5395218, “Biochemical and structural investigations on phosphoribosylpyrophosphate synthetase from Mycobacterium smegmatis” (PLoS ONE, 2017).

Data set [1] deals with T1, phosphoribosylpyrophosphate synthetase (MsPrsA) (Mycolicibacterium smegmatis, UniProt A0R3C8).
T1 construct: gene prs; recombinant MsPrsA, hexamer
T1 sequence (A0R3C8 1-326): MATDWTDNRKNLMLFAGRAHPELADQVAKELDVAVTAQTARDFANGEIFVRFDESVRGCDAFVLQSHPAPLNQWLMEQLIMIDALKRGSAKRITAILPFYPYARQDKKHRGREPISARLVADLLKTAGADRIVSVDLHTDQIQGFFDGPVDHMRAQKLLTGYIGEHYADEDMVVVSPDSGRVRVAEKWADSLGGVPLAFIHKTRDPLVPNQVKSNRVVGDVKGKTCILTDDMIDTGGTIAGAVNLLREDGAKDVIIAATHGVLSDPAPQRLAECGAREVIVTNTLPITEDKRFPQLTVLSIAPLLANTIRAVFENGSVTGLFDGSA
The data set can be described thus: OPRT-coupled spectrophotometric assay, dose response on purified enzyme. The class given is biochemical.

Data set [2] deals with the molecule itself. The data set is described as follows: SEC; analytical gel filtration on Sephacryl S200HR 16/60, MsPrsA 1 mg/ml in Tris-HCl 20mM pH 8.0, NaCl 50mM; column calibrated with Blue Dextrane, catalase, aldolase, albumin, ovoalbumin; elution volume consistent with about 221 KDa.
Substrate in data set [3]: Nc1ncnc2c1ncn2[C@@H]1O[C@H](COP(=O)(O)OP(=O)(O)OP(=O)(O)O)[C@@H](O)[C@H]1O
The data set is described as follows: purified protein. Format: biochemical, Mycolicibacterium smegmatis. The note with it: Mg2+, inorganic phosphate.

As a reminder, the IC50 is the concentration that gives 50% inhibition. A low value points to inhibition by little substance. For the molecule `Nc1ncnc2c1ncn2[C@@H]1O[C@H](COP(=O)(O)OP(=O)(O)O)[C@@H](O)[C@H]1O` [ADP], 174 ± 46 µM corresponded to half-maximal inhibition in data set [1] (IC50).

B1: Mycobacterium smegmatis phosphoribosylpyrophosphate synthetase (PrsA) (enzyme, M. smegmatis mc2155, UniProt A0R3C8 1-326, looked up)
chain: T1 sequence (A0R3C8 1-326)
notes: Phosphoribosylpyrophosphate synthetase (PrsA) of M. smegmatis mc2155; the crystal model holds Arg9-Gly316 without Arg204-Lys213; pCold I is recalled to add an N-terminal translation enhancing element, His6 and a Factor Xa site; also called MsPrsA; M. smegmatis PrsA
A word on the stoichiometry N: it is a count of units in the complex or per binding partner. The term Vmax denotes the rate approached at saturating substrate. Broadly, the kcat is the maximal rate divided by the concentration of active sites. Broadly, the kcat/Km is the second-order rate constant that governs catalysis at low substrate concentration. Turning to B1, in data set [2], the “stoichiometry N” value was found to be 6. Besides, in data set [3], the K0.5 came out at 0.058 ± 0.005 mM, the Vmax came out at 0.006 µmol/min, the kcat was 83.5 ± 4.1 s⁻¹ and the catalytic efficiency (kcat/Km) came out at 1.44e+06 ± 53800 M⁻¹ s⁻¹.
